Measured values from PMC7719794.

Target: chicken CD8αα homodimer (chicken)
Test: crystal structure; sitting-drop vapour diffusion at 291 K, 10 mg/ml; cCD8αα and pMHC-I mixed at a 2:1 molar ratio at 277 K overnight; three crystals: pBF2*1501, cCD8αα/pBF2*1501, cCD8αα/pBF2*0401; two complexes (A and B) in the asymmetric unit of each co-crystal

stoichiometry N: 2
Substance: chicken CD8αα homodimer (receptor)
